# From patent publication US20090029370A1
# “And” between values parts separate entries of the source, which are not always exact repeats. Equal values may be shown once.
# Experiments:
# [1] = biological target: bacteriophage λN peptide fused to the N-terminus of β-EGFP (bacteriophage λ; Aequorea victoria) [GFP: P42212]; experiment: cell-based or functional assay
# [2] = biological target: β-fragment of EGFP (betaCys-fragment, 159-234 aa) biotinylated, tagged with streptavidin and a biotinylated 21-nt oligonucleotide (Aequorea victoria) [GFP: P42212]; experiment: cell-based or functional assay
t½ of fluorescence increase upon mixing [2] [min],Substance,"average fluorescence over background (no RNA component), 0.01 mM IPTG [1]",signal/background ratio at reduced IPTG [1]
,α-EGFP fused at its C-terminus to HTLV-1 Rex peptide (from UniProt P42212 1-158),10 fold and 15 fold,10 fold and 20 fold
1.67,"α-fragment of EGFP (alphaCys-fragment, 1-158) biotinylated, tagged with streptavidin and a biotinylated 21-nt oligonucleotide (from UniProt P42212 1-158; P22629 37-163)",,
